{"source": "patent US20210063414A1", "about": "“METHODS FOR PREVENTING AND/OR TREATING BONE LOSS CONDITIONS BY MODULATING IRISIN” (Dana-Farber Cancer Institute, Inc., priority 2018, published 2021)", "target": "T1, MLO-Y4 cell surface proteins (Mus musculus, UniProt P70388)", "T1 construct": "endogenous in cells; host or cells: MLO-Y4", "T1 sequence (P70388 1-1312)": "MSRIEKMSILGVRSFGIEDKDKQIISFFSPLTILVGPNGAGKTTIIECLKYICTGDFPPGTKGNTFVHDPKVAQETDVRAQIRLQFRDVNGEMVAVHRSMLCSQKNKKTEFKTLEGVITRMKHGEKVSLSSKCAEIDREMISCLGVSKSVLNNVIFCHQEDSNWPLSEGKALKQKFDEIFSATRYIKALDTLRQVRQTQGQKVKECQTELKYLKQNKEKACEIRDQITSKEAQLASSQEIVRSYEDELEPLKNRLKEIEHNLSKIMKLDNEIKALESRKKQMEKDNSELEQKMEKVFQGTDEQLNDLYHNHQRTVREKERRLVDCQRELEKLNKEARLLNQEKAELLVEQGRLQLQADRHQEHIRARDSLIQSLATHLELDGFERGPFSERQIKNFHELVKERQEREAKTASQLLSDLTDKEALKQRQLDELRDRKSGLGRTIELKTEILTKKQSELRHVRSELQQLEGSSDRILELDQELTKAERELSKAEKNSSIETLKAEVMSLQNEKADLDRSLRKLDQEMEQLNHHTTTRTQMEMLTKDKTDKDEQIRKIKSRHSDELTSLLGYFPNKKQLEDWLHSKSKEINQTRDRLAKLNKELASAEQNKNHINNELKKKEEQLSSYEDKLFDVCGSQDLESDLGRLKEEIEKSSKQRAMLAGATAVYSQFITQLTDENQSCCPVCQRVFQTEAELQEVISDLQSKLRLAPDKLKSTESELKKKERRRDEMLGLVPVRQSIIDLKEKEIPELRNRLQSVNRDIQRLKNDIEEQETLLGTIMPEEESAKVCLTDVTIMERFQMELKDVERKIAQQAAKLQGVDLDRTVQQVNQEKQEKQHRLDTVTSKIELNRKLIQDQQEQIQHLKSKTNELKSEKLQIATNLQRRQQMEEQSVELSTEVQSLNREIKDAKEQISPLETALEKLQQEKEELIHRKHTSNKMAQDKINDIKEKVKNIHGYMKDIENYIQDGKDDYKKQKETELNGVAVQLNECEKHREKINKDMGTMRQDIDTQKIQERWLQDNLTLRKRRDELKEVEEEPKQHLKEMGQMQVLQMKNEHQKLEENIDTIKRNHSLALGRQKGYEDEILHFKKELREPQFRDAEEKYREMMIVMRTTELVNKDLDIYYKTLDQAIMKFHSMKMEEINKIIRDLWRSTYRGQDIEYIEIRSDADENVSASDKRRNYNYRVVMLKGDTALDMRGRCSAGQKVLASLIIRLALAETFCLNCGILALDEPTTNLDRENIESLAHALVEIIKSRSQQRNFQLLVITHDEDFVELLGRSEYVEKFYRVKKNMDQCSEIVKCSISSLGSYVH", "assay": "Crosslinking/co-immunoprecipitation/mass spectrometry (TMT quantitative proteomics) to identify irisin receptors", "type": "binding", "conditions": "co-precipitated protein Rad50 (RAD50_MOUSE)", "procedure,_shortened": "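Relative protein abundance came from 6-plex TMT MS3 quantitation on an Orbitrap Fusion Lumos, after in-gel trypsin digestion of Coomassie-stained SDS-PAGE lanes. Input was a Ni-NTA pulldown (250 mM imidazole elution) of lysates from murine MLO-Y4 cells. These cells were treated on ice with His-tagged irisin or adipsin (10 nM, 20 min) in serum-free medium, then crosslinked with 1.5 mM DTSSP for 30 min.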", "data": [{"molecule": "irisin: secreted cleaved form of FNDC5; recombinant human/mouse irisin with C-terminal his tag produced in HEK293 cells (protein, left off: small tags and cut ends, secreted cleaved form of FNDC5; recombinant human/mouse irisin with C-terminal his tag produced in HEK293 cells) DSPSAPVNVTVRHLKANSAVVSWDVLEDEVVIGFAISQQKKDVRMLRFIQEVNTTTRSCALWDLEEDTEYIVHVQAISIQGQSPASEPVLFKTPREAEKMASKNKDEVTMKE", "values": [{"measurement": "TMT signal-to-noise ratio", "value": 10.8209}, {"measurement": "irisin/adipsin TMT signal-to-noise ratio", "value": 0.026}]}]}
